The target in assay [1] is T1, recombinant human IL-17A (purchased from R&D Systems) (human, UniProt Q16552 24-155). In words: cell-based or functional assay.
The target in assay [2] is T2, hIL-17A (analyte of the Biacore assay) (human, UniProt Q16552 24-155).
T2 construct: The Biacore method says only 'hIL-17A'; also called human IL-17A
Kind of assay: SPR, Biacore T200: antibody captured on Protein A/G, hIL-17A as analyte. As for the experimental part: (§1) The specific experimental method was as follows: Amine Coupling Kit (GE healthcare) was used to activate CM5 sensor chips (GE healthcare) and recombinant Protein A/G (Thermo Pierce) was immobilized on the chip with an amount of 2000 RU. FC3 (Flow cell 3) was a reference channel, and FC4 (Flow cell 4) was a sample channel. […] The cycling conditions were as follows: the analyte was injected at 50 μl/min for 4 min in all channels of the FCs, the dissociation time was 20 min, and 6M guanidine hydrochloride (National Pharmaceutical Group Chemical Reagent Co., Ltd.) was injected at a rate of 10 μl/min for 30 s to surface regeneration. Then, difference between the signals of the captured antibodies and antibody-free controls were adopted to calculate binding kinetics and affinities using Biacore T200 Evaluation Software Ver 1.0.
On the technique in general: SPR reads the build-up and loss of mass on a sensor chip optically.

Assay [3] deals with T1, recombinant human IL-17A (purchased …). In words: cell-based or functional assay. The source holds these as a separate data set.
Assay [4] has as its target T2, hIL-17A (analyte of the Biacore assay). Kind of assay: SPR, Biacore (as in Example 6): antibody captured, hIL-17A as analyte. The method, then: as §1

T2 sequence (Q16552 24-155 limits assumed): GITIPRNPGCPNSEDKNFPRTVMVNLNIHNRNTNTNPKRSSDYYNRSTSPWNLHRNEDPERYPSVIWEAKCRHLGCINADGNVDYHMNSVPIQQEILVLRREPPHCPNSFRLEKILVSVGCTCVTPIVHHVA
T1 sequence (Q16552 24-155 limits assumed): as above

B1: murine anti-human IL-17A monoclonal antibody No.120 (antibody, V domains shown)
VH: EVKLVESGGGLVRPGGTLKLSCAASGFTFSSFDMSWGRQTPEKRLEWVAFMSSGGSTYYPDSVKGRFTISRDNVRNILYLQMISLRSEDTAMYYCARGERYGSYWGQGTLVTVSA
VL: DIQMTQSSSYLSVSLGGRVTITCKASDHINNWLAWYQQKPGNAPRLLISGATSLETGVPSRFSGSGSGKDYTLSITSLQTEDVATYYCQQYWSTPFTFGSGTKLEIK
notes: also called No.120 antibody; murine 120 antibody
A word on the Kd: it is the concentration at which binding is half-saturated. For orientation: koff means the rate constant with which the complex falls apart. Lower therefore signals slow dissociation. As usually defined, the kon is the second-order rate constant of association. Read a high kon as faster complex formation. With B1, the “IC50, inhibition of IL-17A-induced IL-6 secretion from Hela cells” value in assay [1] was found to be 30.5 pM. In assay [2], this molecule had a Kd of 0.299 pM, a koff of 6.08e-08 s⁻¹ and a kon of 204000 M⁻¹ s⁻¹.

B2: humanized anti-human IL-17A monoclonal antibody 120-Hu (antibody, human IgG1, kappa, V domains shown)
VH: EVQLVESGGGLVQPGGSLRLSCAASGFTFSSFDMSWGRQAPGKRLEWVAFMSSGGSTYYPDSVKGRFTISRDNSKNTLYLQMNSLRAEDTAVYYCARGERYGSYWGQGTLVTVSS
VL: DIQMTQSPSSLSASVGDRVTITCKASDHINNWLAWYQQKPGKAPKLLISGATSLETGVPSRFSGSGSGTDYTLTISSLQPEDFATYYCQQYWSTPFTFGSGTKLEIKR
notes: Human IgG1; also called 120-Humanization; humanized 120 antibody
For B2, in assay [3], the “IC50(pM), inhibition of IL-17A-induced IL-6 secretion from Hela cells, Experiment 1” value was 14.7 pM; the “IC50(pM), inhibition of IL-17A-induced IL-6 secretion from Hela cells, Experiment 2” value worked out at 22 pM; the “IC50(pM), inhibition of IL-17A-induced IL-6 secretion from Hela cells, Experiment 3” value was determined as 44.6 pM. In assay [4], this molecule gave an equilibrium dissociation constant (Kd) of less than 1 pM, a koff of less than 1e-05 s⁻¹ and a kon of 445000 M⁻¹ s⁻¹.

B3: Ixekizumab (antibody, V domains shown)
VH: QVQLVQSGAEVKKPGSSVKVSCKASGYSFTDYHIHWVRQAPGQGLEWMGVINPMYGTTDYNQRFKGRVTITADESTSTAYMELSSLRSEDTAVYYCARYDYFTGTGVYWGQGTLVTVSS
VL: DIVMTQTPLSLSVTPGQPASISCRSSRSLVHSRGNTYLHWYLQKPGQSPQLLIYKVSNRFIGVPDRFSGSGSGTDFTLKISRVEAEDVGVYYCSQSTHLPFTFGQGTKLEIKR
Consider B3, for which, in assay [3], the “IC50(pM), inhibition of IL-17A-induced IL-6 secretion from Hela cells, Experiment 1” value is 21.9 pM; the “IC50(pM), inhibition of IL-17A-induced IL-6 secretion from Hela cells, Experiment 2” value was 27.4 pM; the “IC50(pM), inhibition of IL-17A-induced IL-6 secretion from Hela cells, Experiment 3” value came out at 50.7 pM. In assay [4], this molecule returned a Kd of 41.1 pM, a koff of 9.45e-05 s⁻¹ and a kon of 2.3e+06 M⁻¹ s⁻¹. Also, the “IC50, inhibition of IL-17A-induced IL-6 secretion from Hela cells” value in assay [1] is 60.6 pM. Besides, in assay [2], binding was put at a Kd of 63.7 pM, the koff turned out to be 3.28e-05 s⁻¹ and the kon worked out at 515000 M⁻¹ s⁻¹.

The record behind these values is US20190161544A1 (SUNSHINE GUOJIAN PHARMACEUTICAL SHANGHAI, published 2019).
